Measured values taken from article PMC9649737.
Where a chain is given by its changes, count along the chain named. Numbers in names are those of the source.

B1: H34 wild type (H34wt) catalytic antibody light chain T93A (protein)
chain: DIQMTQSPSTLSASVGDRVTITCRASQSISSWLAWYQQKPGKAPKVLIYKASTLESGVPLRFSGSGSGTEFTLTISSLQPDDFATYYCQQYSAYRTFGQGTKVEIK
B2: H34 wild type (H34wt) catalytic antibody light chain T97A (protein)
chain: B1 chain with A93T, T96A
B3: H34 wild type (H34wt) catalytic antibody light chain R96A (protein)
chain: B1 chain with A93T, R95A
B4: H34 wild type (H34wt) catalytic antibody light chain D1A (protein)
chain: B1 chain with D1A, A93T
B5: H34 wild type (H34wt) catalytic antibody light chain R96P (protein)
chain: B1 chain with A93T, R95P

target: recombinant PD-1 molecule (rPD-1), Q15116; assay: ELISA; settings: chain shown with the change; L-chain 4 µM; coated antigen (rPD1): 2 µg/mL and 50 µL/well; parent: est. 0.94; read off a plot
Sequence (Q15116 25-167): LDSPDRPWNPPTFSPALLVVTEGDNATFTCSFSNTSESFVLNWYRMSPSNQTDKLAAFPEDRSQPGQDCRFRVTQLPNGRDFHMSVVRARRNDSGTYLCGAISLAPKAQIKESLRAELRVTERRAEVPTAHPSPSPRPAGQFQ

response	Binder
0.69 OD (490nm)	B1
1.15 OD (490nm)	B2
0.07 OD (490nm)	B3
1.12 OD (490nm)	B4
0.09 OD (490nm)	B5

same assay, conditions: chain shown with the change; L-chain 20 µM (prozone region for this mutant); coated antigen (rPD1): 2 µg/mL and 50 µL/well; parent: est. 1.14; read off a plot

response	Binder
0.61 OD (490nm)	B2
0.63 OD (490nm)	B4

same assay, conditions: chain shown with the change; L-chain 20 µM; coated antigen (rPD1): 2 µg/mL and 50 µL/well; parent: est. 1.14; read off a plot

response	Binder
1.1 OD (490nm)	B1
0.16 OD (490nm)	B3
0.13 OD (490nm)	B5
